Assay results: patent US20030061635A1 (published 2003)

B1: synthetic peptide MP-1 (18-amino acid CaM-binding domain of maize NPG1) (peptide)
peptide: VSKGWRLLALILSAQQRF
notes: Chemically synthesized, purity about 95%; also called the synthetic peptide; maize NPG1-synthetic peptide

What was measured:
[1] = target: T1, bovine CaM (calmodulin) (bovine, UniProt P62157 2-149); assay: gel mobility shift, 4 M urea, CaCl2; 166 pmol CaM and 166 pmol peptide
Source text: (§1) To determine the stoichiometry of the CaM-peptide complex, we performed binding studies using the synthetic peptide (MP-1) and CaM in the presence of Ca²⁺ or EGTA. The binding of the synthetic peptide to CaM was detected by a gel mobility shift assay in polyacrylamide gels containing 4 M urea (FIG. 4A). […] In the presence of CaCl₂ the synthetic peptide retarded the migration of CaM in the gel indicating the formation of a complex between the peptide and CaM (FIG. 4A). […] At a molar ratio of 2:1 and 4:1 (peptide:CaM), the entire CaM migrated as a complex, and the band corresponding to the free CaM disappeared (FIG. 4A, lanes 3 and 4).
(§2) The interaction of CaM with synthetic peptide was also analyzed using electrophoretic mobility shift of CaM in the presence of a synthetic peptide. Each of the AtCaM isoforms and bovine CaM (166 pmol) were incubated with increasing concentrations of maize NPG1-synthetic peptide (166, 332, and 664 pmol) in the presence of 4 M urea, in a buffer containing 100 mM Tris-HCl, pH 7.5, and 1 mM CaCl₂ or 5 mM EGTA at room temperature for 1 h in a total volume of […]. Then, […] of sample buffer (0.375 M Tris-HCl, pH 6.8, 30% glycerol, and 0.023% bromphenol blue) was added to the samples and the mixture was electrophoresed in 12% polyacrylamide gels containing 4 M urea or 7.5% glycerol, 0.375 M Tris-HCl, pH 8.8, and either 1 mM CaCl₂ or 5 mM EGTA. The gels were run at a constant voltage of 25 V per gel in an electrode buffer (25 mM Tris-HCl, pH 8.3, 192 mM glycine, and either 1 mM CaCl₂ or 5 mM EGTA). The gels were stained with 0.25% Coomassie Blue R-250 in 7.5% acetic acid and 50% methanol for 1 h and then destained with 30% methanol and 7% acetic acid.

[2] = target: T2, Arabidopsis thaliana CaM isoform 2 (Arabidopsis thaliana, UniProt P0DH97 1-149); assay: as above
T2 construct: also called CaM2; CaM-2
Source text: as §1, §2

[3] = target: T3, Arabidopsis thaliana CaM isoform 4 (Arabidopsis thaliana, UniProt P0DH96 1-149); assay: as above
T3 construct: Used 35S-labeled, unlabeled or HRP-labeled, depending on the assay; also called CaM4; CaM-4
Source text: as §1, §2

[4] = target: T4, Arabidopsis thaliana CaM isoform 6 (Arabidopsis thaliana, UniProt Q03509 1-149); assay: as above
T4 construct: Used 35S-labeled, unlabeled or HRP-labeled, depending on the assay; also called CaM6; CaM-6
Source text: as §1, §2

[5] = target: T1, bovine CaM (calmodulin); assay: tryptophan fluorescence spectroscopy, equimolar peptide and CaM, excitation 290 nm
Description: (§3) FIG. 4A is the analysis of CaM binding to a synthetic 18-amino acid peptide (MP-1, SEQ ID NO:2) by electrophoretic mobility shift polyacrylamide gels with 4 M urea. Lane 1 contained CaM alone (166 pmol), lanes 2-4 contained CaM (166 pmol) and 166, 332 and 664 pmol, respectively of synthetic MP-1. BCaM is bovine CaM, CaM2, CaM4, and CaM6 are the 2, 4, and 6 isoforms of Arabidopsis CaM. […] CaM and MP-1 (166 pmol) were incubated in 5 mM Tris, pH 7.3 and 0.5 mM CaCl₂. The excitation was measured at 290 nm and bandwidth for excitation and emission was 5 nm.
(§4) The tryptophan fluorescence spectra of free and CaM-bound synthetic peptide were recorded with a Hitachi-F-3010/4010 spectrofluorimeter as described in Reddy et al. (1996) supra. NPG1 peptide and AtCaMs (166 pmol each) were mixed in a […] reaction volume. The tryptophan residue in free and CaM-bound synthetic NPG1 peptide was excited at 290 nm and the emission wavelength values were recorded from 300 to 400 nm with a bandwidth of 5 nm in a 5-mm quartz cell at 25° C. Samples were incubated for 1 h at 25° C. prior to spectroscopic measurements. Corrections were made for the protein and solvent blanks.

[6] = target: T2, Arabidopsis thaliana CaM isoform 2; assay: as above
Description: as §3, §4

[7] = target: T3, Arabidopsis thaliana CaM isoform 4; assay: as above
Description: as §3, §4

[8] = target: T4, Arabidopsis thaliana CaM isoform 6; assay: as above
Description: as §3, §4

[9] = target: T1, bovine CaM (calmodulin); assay: tryptophan fluorescence spectroscopy, equimolar peptide and CaM (166 pmol each), excitation 290 nm
Description: as §3, §4

[10] = target: T2, Arabidopsis thaliana CaM isoform 2; assay: as above
Description: as §3, §4

[11] = target: T3, Arabidopsis thaliana CaM isoform 4; assay: as above
Description: as §3, §4

[12] = target: T4, Arabidopsis thaliana CaM isoform 6; assay: as above
Description: as §3, §4

[13] = target: T2, Arabidopsis thaliana CaM isoform 2; assay: slot blot of peptide probed with 35S-labeled AtCaM isoform
[14] = target: T3, Arabidopsis thaliana CaM isoform 4; assay: as above
[15] = target: T4, Arabidopsis thaliana CaM isoform 6; assay: as above

| Binder | percent of CaM shifted at a molar ratio of 1:1 (peptide:CaM) [1] [%] | percent of CaM shifted at a molar ratio of 1:1 (peptide:CaM) [2] [%] | percent of CaM shifted at a molar ratio of 1:1 (peptide:CaM) [3] [%] | percent of CaM shifted at a molar ratio of 1:1 (peptide:CaM) [4] [%] | wavelength of peak tryptophan emission of the peptide with CaM (free peptide about 350 nm) [5] [nm] | wavelength of peak tryptophan emission of the peptide with CaM (free peptide about 350 nm) [6] [nm] | wavelength of peak tryptophan emission of the peptide with CaM (free peptide about 350 nm) [7] [nm] | wavelength of peak tryptophan emission of the peptide with CaM (free peptide about 350 nm) [8] [nm] | tryptophan fluorescence intensity of the peptide with CaM (free peptide about 0.1) [9] | tryptophan fluorescence intensity of the peptide with CaM (free peptide about 0.1) [10] | tryptophan fluorescence intensity of the peptide with CaM (free peptide about 0.1) [11] | tryptophan fluorescence intensity of the peptide with CaM (free peptide about 0.1) [12] | binding result [13] | binding result [14] | binding result [15] |
| --- | --- | --- | --- | --- | --- | --- | --- | --- | --- | --- | --- | --- | --- | --- | --- |
| B1 | ~50 | ~50 | ~50 | ~50 | ~315 | ~315 | ~315 | ~315 | ~6.1 | ~8.4 | ~4.5 | ~6.1 | – | – | – |
| AKLDQGSLLRVKAKLKVAQSSPM [synthetic peptide MP-2 (different region of maize NPG1, negative control)] | – | – | – | – | – | – | – | – | – | – | – | – | no binding | no binding | no binding |
| ISSKEMVRLKKLVAYWKEQAGKK (Positive control peptide) [KCBP-peptide (CaM-binding peptide of kinesin-like calmodulin binding protein)] | – | – | – | – | – | – | – | – | – | – | – | – | binds | binds | binds |
